In this assay the target is T1, DsbA protein of Escherichia coli (protein encoded by the dsbA gene) (Escherichia coli, UniProt P0AEG4 20-208, free cysteine thiols labelled with AMS (4-acetamido-4'-maleimidyl-stilbene-2,2'-disulfonate) before electrophoresis).
T1 construct: Endogenous periplasmic DsbA of E. coli BW25113, detected in cell lysates; also called disulfide oxidoreductase
T1 sequence: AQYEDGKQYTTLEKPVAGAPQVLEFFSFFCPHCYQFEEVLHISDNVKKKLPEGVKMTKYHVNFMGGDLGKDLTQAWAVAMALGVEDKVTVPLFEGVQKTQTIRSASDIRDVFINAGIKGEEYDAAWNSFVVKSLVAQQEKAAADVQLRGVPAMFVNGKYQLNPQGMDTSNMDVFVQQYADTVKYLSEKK
The experiment in a line: AMS modification, non-reducing SDS-PAGE and Western blot with anti-DsbA serum; wild-type E. coli BW25113 exposed to 5 mM cysteine. For orientation: A western blot detects proteins with antibodies after separation by electrophoresis.

B1: DsbB (enzyme)
chain: MLRFLNQCSQGRGAWLLMAFTALALELTALWFQHVMLLKPCVLCIYERCALFGVLGAALIGAIAPKTPLRYVAMVIWLYSAFRGVQLTYEHTMLQLYPSPFATCDFMVRFPEWLPLDKWVPQVFVASGDCAERQWDFLGLEMPQWLLGIFIAYLIVAVLVVISQPFKAKKRDLFGR
notes: Endogenous protein in the wild-type strain, seen only as the DsbA-DsbB complex band on the anti-DsbA Western blot; also called intracellular membrane protein DsbB
B1: the binding result is recorded as “binds”.

Source of the values: patent US20100216196A1 (AJINOMOTO, published 2010).
